Tests used:
GFP-dynactin 6 = GFP-dynactin 6 (UniProt O00399); test: co-IP; HEK 293 cells co-transfected with myc-tagged Rab and GFP fusion; lysis in 50 mM Tris pH 7.4, 150 mM NaCl, 1% Triton X-100; GFP fusions precipitated on GBP agarose beads, room temperature 1.5 h; blot for myc and GFP; co-IP efficiency = co-IP / input
GFP-syntaxin 8 = GFP-syntaxin 8 (UniProt Q9UNK0); test: as above
Chain of UniProt Q9UNK0 (Q9UNK0 whole entry): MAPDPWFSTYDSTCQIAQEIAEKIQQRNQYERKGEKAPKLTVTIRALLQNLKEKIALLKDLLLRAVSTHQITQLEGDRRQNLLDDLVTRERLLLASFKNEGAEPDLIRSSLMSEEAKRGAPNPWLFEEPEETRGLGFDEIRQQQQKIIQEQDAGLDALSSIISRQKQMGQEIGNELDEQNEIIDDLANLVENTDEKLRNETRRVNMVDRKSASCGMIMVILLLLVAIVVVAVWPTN

Chain of UniProt O00399 (O00399 whole entry, the tested form may be a part): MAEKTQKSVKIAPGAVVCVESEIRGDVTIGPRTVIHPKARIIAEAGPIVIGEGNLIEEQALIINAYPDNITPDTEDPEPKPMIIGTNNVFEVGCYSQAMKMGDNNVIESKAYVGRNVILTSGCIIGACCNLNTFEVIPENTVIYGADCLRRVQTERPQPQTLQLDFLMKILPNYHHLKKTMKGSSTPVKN

“myc-tagged GDP-locked Rab41/6d (from UniProt Q5JT25 1-222) (natural protein)” gave a co-IP efficiency (co-IP divided by input) (GFP-dynactin 6) of 2% and a co-IP efficiency (co-IP divided by input) (GFP-syntaxin 8) of 1.9%.

“myc-tagged GTP-locked Rab41/6d (from UniProt Q5JT25 1-222) (natural protein)” gave a co-IP efficiency (co-IP divided by input) (GFP-dynactin 6) of 2.7% and a co-IP efficiency (co-IP divided by input) (GFP-syntaxin 8) of 3.3%.

Reference: publication PMC4771738
